{
  "source": "paper PMC12329521",
  "experiment_in_all_cases": "SEC",
  "key": {"[1]": {"target": "PLP-bound Rv2531c (Mycobacterium tuberculosis)"}, "[2]": {"target": "Rv2531c (apo) (Mycobacterium tuberculosis)"}, "[3]": {"target": "Rv2531c (apo) (Mycobacterium tuberculosis)", "remark": "listed apart in the source"}},
  "note": "Read-outs that look alike come from different tables or passages of the source.",
  "data": [
    {"substance": "PLP-bound Rv2531c (enzyme)", "values": [
      {"measurement": "stoichiometry N", "setting": "[1]", "result": 2}
    ]},
    {"substance": "Rv2531c (apo) (enzyme)", "values": [
      {"measurement": "stoichiometry N", "setting": "[2]", "result": 4},
      {"measurement": "stoichiometry N", "setting": "[3]", "result": 4}
    ]}
  ]
}
